Measured values published in patent US20070256687A1, “Enhanced Medical Product” (priority 2004, published 2007).

Assay: Emitted dose of volumetrically dosed API/excipient mixtures delivered by a proprietary DPI
Format: physicochemical
Source text: In the course of developing methods and products according to the present invention different APIs were mixed with excipients in different ratios. The objectives were to find inter alia suitable formulations and methods of filling doses, but also to optimize inhaler techniques and interaction between inhaler and dose container. Table 1 below discloses some examples of volumetrically dosed mixtures API/excipient and the resulting emitted dose when delivered by a proprietary DPI. […] The objective was to find suitable excipients and to see how different mixing ratios affected the emitted dose. The mixtures were produced under laboratory conditions in small quantities and remained quasi-stable under the run of tests. The emitted dose as percentage of total recovered dose was measured and the results were used in the development of the current invention.

[1] = excipient Mannitole, ratio API/excipient 50/50, proprietary DPI
[2] = excipient Respitose®, ratio API/excipient 20/80, proprietary DPI

Substance: insulin [Micronized insulin]
- Emitted Dose in % of recovered dose [1]: 83 % of recovered dose
- Retention in % of recovered dose [1]: 17 % of recovered dose
- Emitted Dose in % of recovered dose [2]: 93 % of recovered dose
- Retention in % of recovered dose [2]: 7 % of recovered dose
